Laboratory results: the DeepSol protein solubility set

assay: soluble on expression in E. coli; label from the status in PepcDB or PDB records

Row | Sequence | soluble on expression in E. coli
1 | MFEINKQIGIYIHFPWCVRKCPYCDFNSHPIKDDSYLSEQYYQKLIADFDTHLDDLQAREVISIFIGGGTPSLFKAEYLDKVLQHITKNTKISINCEITLEMNPGTVERGSILSYQNIGINRISLGVQSFQDDKLKILGRIHNCENVYTTIDEIKNSKISNFNIDIMHGLPNQSFDDGIFDITQAIAMQPTHISWYQLTIEPNTLFAAKRPKFPDEEILESIEIAGKEALAHAGFKQYEVSAFAKNTLRSIHNSNYWMFGDYIGIGAGAHSKITNLKTKQIKRVWKHKHPKIYTQTDKFIKDSNIVTQDEIIYEFMLNTLRLKNGFKLSEFEQQTFLSSNIISQKLQLGIDKGLLELNANQIKPTAKGYLFLNDCINIFS | not soluble
2 | QSSKSPLTAALGLDISGTPIITDLQKMPHGLIAGATGSGKSVCINSLLVSLLYKATPDQLKLLLIDPKMVELAPYNRIPHLVSPVITDAKAATVALKWAVEEMERRYQLFSHTGVRNMEKYNEYASHPDHTGEKLPYILIVIDELADLMMVAPNDVEESISRIAQKARACGIHMIVATQRPSV | not soluble
3 | MRLLIITGISGAGKSLVVKYLEDIGFFCVDNLPPLLIGKFAEICLKSRGKISKVALVIDIRGGELFNDLVPELNALKESGIDYEILFLEASDQVLIKRYKESRRIHPLAPEGRLIKGIKTEREILSQIRKNATYIIDTSNLTPRQLKEEILAIFVEGRKFDGMIVNIISFGFKYGIPIECDLVFDVRFIPNPYYIESMKYKTGKDEEVRNYVMSFAETAEFMTKLKDLVDFLIPNYIKEGKSQLVIGVGCTGGRHRSVAISEALFSYLCGREHRVFIDHRDIDKDGRSNRR | soluble
4 | PPPAPIPDLKVFEREGVQLNLSFIRPPENPALLLITITATNFSEGDVTHFICQAAVPKSLQLQLQAPSGNTVPARGGLPITQLFRILNPNKAPLRLKLRLTYDHFHQSVQEIFEVNNLPVESWQ | soluble
5 | SNAMSGNGNAAATAEENSPKMRVIRVGTRKSQLARIQTDSVVATLKASYPGLQFEIIAMSTTGDKILDTALSKIGEKSLFTKELEHALEKNEVDLVVHSLKDLPTVLPPGFTIGAICKRENPHDAVVFHPKFVGKTLETLPEKSVVGTSSLRRAAQLQRKFPHLEFRSIRGNLNTRLRKLDEQQEFSAIILATAGLQRMGWHNRVGQILHPEECMYAVGQGALGVEVRAKDQDILDLVGVLHDPETLLRCIAERAFLRHLEGGCSVPVAVHTAMKDGQLYLTGGVWSLDGSDSIQETMQATIHVPAQHEDGPEDDPQLVGITARNIPRGPQLAAQNLGISLANLLLSKGAKNILDVARQLNDAH | soluble
6 | MELTMKNPTVENLKVLTQEFFSLHWNAVLLGSDYPEWSDIYEFTGSMPNHDKQGVYAFVKNGVVTYIGVGASSNGTGRYAGHGLGKRFQSYSKVVDGRHVPTDPRLVDAGAMITIGFKPEQSYLAYALEMFLIGKMSTEHNINRPSK | not soluble
7 | MSLSHSEKDVHEMGRFLLSTIKGSILELAFSHGEVEGLSFEKKVTILEIEDLDLPTDRHDELDENQRLSVTLMFALGTFCSKFGSRNRKEETVTFFDEAWIFQSSPEGQKILKSMKRIGRSFNNFMVLITQSVNDVLDNGDGTGFGTVVCFDEVDNREGILRYLKLPVNEINLKWVSNMIQGQCLMKDMFNQVNRIVIDVIFEEWLELFETVDEGHHHHHH | not soluble
8 | MSVNNIDQLLGELKSAAALASGKQAPAAQQTPQVDFSDVLKSTIEQVNSAQQTSEEMQKQFQLGDNKEVNLQDVMMSLQKASLSFQTMVQARNKLVSAYQEIMNTQV | not soluble
9 | MGSDKIHHHHHHMQILTIDVGGTTALFELQLAGHTEQYKIPTGEGFKIEELNNQIAALERDYDLQDYQLAIGVPGLVQNNRLVACKSLPGLNGLSFDTVKTQGELKFICNDMDAGMQATCDAKYACELLVMCGTGIGMSIAFNGQAFTGATGVAGELGHCRVMTESGEFSLEQLASGDSVRSRNITTQDDLYRAGSYLGMGLAWTVNLFNPNRIWLAGNMMNSAPYYKGCLESLKQMALSAPLAEMKINRVDDMETLVCRGLSAMLARDYPRA | not soluble
10 | MTKASDAVKGIINSNNIYTLLLNTGLVNYTKLAREIKSQVDFLTGKKVKINTIVKALTNIEIKSKPKDILLILKQSILTLEYNYKEITTENRNKIPDDAILVIKESNGYSAIIKTTDGNSLVIAKILLPPGSCTTAGITLLITEFLEINGVSVRNIYRLSKEIWIIVDSESAGKAADALNRLLYKSNDRESSPVSLVD | not soluble
